Test results as given in article PMC7022633, “Gene Cloning, Recombinant Expression, Characterization, and Molecular Modeling of the Glycolytic Enzyme Triosephosphate Isomerase from Fusarium oxysporum” (Microorganisms, 2019).

Target: recombinant triosephosphate isomerase from Fusarium oxysporum (FoxTPI) (Fusarium oxysporum)
Assay: SEC; gel filtration on Sephacryl 100 (16/60), 50 mM Tris pH 8.0, 0.5 mL/min; calibrated with Bio-Rad gel filtration standard; single peak at 47 mL, relative MW 56 kDa

stoichiometry N: 2
Substance: recombinant triosephosphate isomerase from Fusarium oxysporum (FoxTPI) (enzyme)
